Assay results from PMC9729883.

How the values were obtained:
[1] = target: afucosylated IgG1 and IgG3 (HLA-A2 mAbs, as a group for a mean dissociation rate); assay: BLI; SAX2 tips loaded with biotinylated HLA-A2 (0.25 ug/mL), then recombinant HLA-A2 IgG (3 ug/mL, 600 s), dipped into 5 uM monomeric FcγRIIIa V158; 0.05% Tween-PBS; off-rate from a one phase exponential decay fit, reference tip subtracted
[2] = target: unmodified forms (of BB7.2 IgG1 and IgG3, as a group for a mean dissociation rate); assay: as above

koff [1]: 0.021 s⁻¹
koff [2]: 0.46 s⁻¹
Substance: FcγRIIIa V158 (human, monomeric) (receptor)
